Reference: IntAct's records for PubMed 22396542

B1: Ceramide transfer protein (Homo sapiens), Q9Y5P4-2 (parent)
chain: MSDNQSWNSSGSEEDPETESGPPVERCGVLSKWTNYIHGWQDRWVVLKNNALSYYKSEDETEYGCRGSICLSKAVITPHDFDECRFDISVNDSVWYLRAQDPDHRQQWIDAIEQHKTESGYGSESSLRRHGSMVSLVSGASGYSATSTSSFKKGHSLREKLAEMETFRDILCRQVDTLQKYFDACADAVSKDELQRDKVVEDDEDDFPTTRSDGDFLHSTNGNKEKLFPHVTPKGINGIDFKGEAITFKATTAGILATLSHCIELMVKREDSWQKRLDKETEKKRRTEEAYKNAMTELKKKSHFGGPDYEEGPNSLINEEEFFDAVEAALDRQDKIEEQSQSEKVRLHWPTSLPSGDAFSSVGTHRFVQKVEEMVQNHMTYSLQDVGGDANWQLVVEEGEMKVYRREVEENGIVLDPLKATHAVKGVTGHEVCNYFWNVDVRNDWETTIENFHVVETLADNAIIIYQTHKRVWPASQRDVLYLSVIRKIPALTENDPETWIVCNFSVDHDSAPLNNRCVRAKINVAMICQTLVSPPEGNQEISRDNILCKITYVANVNPGGWAPASVLRAVAKREYPKFLKRFTSYVQEKTAGKPILF

Variants of: B1
Conditions: with samp_human APCS
In the case of MSDNQSWNSSGSEEDPETESGPPVERCGVLSKWTNYIHGWQDRWVVLKNNALSYYKSEDETEYGCRGSICLSKAVITPHDFDECRFDISVNDSVWYLRAQDPDHRQQWIDAIEQHKTESGYGSESSLRRHGSMVSLVSGASGYSATSTSSFKKGHSLREKLAEMETFRDILCRQVDTLQKYFDACADAVSKDELQRDKVVEDDEDDFPTTRSDGDFLHSTNGNKEKLFPHVTPKGINGIDFKGEAITFKATTAGILATLSHCIELMVKREDSWQKRLDKETEKKRRTEEAYKNAMTELKKKSHFGGPDYEEGPNSLINEEEFFDAVEAALDRQDKIEEQSQSEKVRLHWPTSLPSGDAFSSVGTHRFVQKVEEMVQNHMTYSLQDVGGDANWQLVVEEGEMKVYRREVEENGIVLDPLKATHAVKGVTGHEVCNYFWNVDVRNDWETTIENFHVVETLADNAIIIYQTHKRVWGQSQRDVLYLSVIRKIPALTENDPETWIVCNFSVDHDSAPLNNRCVRAKINVAMICQTLVSPPEGNQEISRDNILCKITYVANVNPGGWAPASVLRAVAKREYPKFLKRFTSYVQEKTAGKPILF [P474G;A475Q], the “effect of a mutation on the interaction” value is reported as “disrupting interaction strength”.
For MSDNQSWNSSGSEEDPETESGPPVERCGVLSKWTNYIHGWQDRWVVLKNNALSYYKSEDETEYGCRGSICLSKAVITPHDFDECRFDISVNDSVWYLRAQDPDHRQQWIDAIEQHKTESGYGSESSLRRHGSMVSLVSGASGYSATSTSSFKKGHSLREKLAEMETFRDILCRQVDTLQKYFDACADAVSKDELQRDKVVEDDEDDFPTTRSDGDFLHSTNGNKEKLFPHVTPKGINGIDFKGEAITFKATTAGILATLSHCIELMVKREDSWQKRLDKETEKKRRTEEAYKNAMTELKKKSHFGGPDYEEGPNSLINEEEFFDAVEAALDRQDKIEEQSQSEKVRLHWPTSLPSGDAFSSVGTHRFVQKVEEMVQNHMTYSLQDVGGDANWQLVVEEGEMKVYRREVEENGAVLDPLKATHAVKGVTGHEVCNYFWNVDVRNDWETTIENFHVVETLADNAIIIYQTHKRVWPASQRDVLYLSVIRKIPALTENDPETWIVCNFSVDHDSAPLNNRCVRAKINVAMICQTLVSPPEGNQEISRDNILCKITYVANVNPGGAAPASVLRAVAKREYPKFLKRFTSYVQEKTAGKPILF [I413A;W562A], the “effect of a mutation on the interaction” value was “decreasing interaction strength”.
In the case of MSDNQSWNSSGSEEDPETESGPPVERCGVLSKWTNYIHGWQDRWVVLKNNALSYYKSEDETEYGCRGSICLSKAVITPHDFDECRFDISVNDSVWYLRAQDPDHRQQWIDAIEQHKTESGYGSESSLRRHGSMVSLVSGASGYSATSTSSFKKGHSLREKLAEMETFRDILCRQVDTLQKYFDACADAVSKDELQRDKVVEDDEDDFPTTRSDGDFLHSTNGNKEKLFPHVTPKGINGIDFKGEAITFKATTAGILATLSHCIELMVKREDSWQKRLDKETEKKRRTEEAYKNAMTELKKKSHFGGPDYEEGPNSLINEEEFFDAVEAALDRQDKIEEQSQSEKVRLHWPTSLPSGDAFSSVGTHRFVQKVEEMVQNHMTYSLQDVGGDANWQLVVEEGEMKVYRREVEENGIVLDPLKATHAVKGVTGHEVCNAAWNVDVRNDWETTIENFHVVETLADNAIIIYQTHKRVWPASQRDVLYLSVIRKIPALTENDPETWIVCNFSVDHDSAPLNNRCVRAKINVAMICQTLVSPPEGNQEISRDNILCKITYVANVNPGGWAPASVLRAVAKREYPKFLKRFTSYVQEKTAGKPILF [Y435A;F436A], the “effect of a mutation on the interaction” value is reported as “decreasing interaction strength”.
For MSDNQSWNSSGSEEDPETESGPPVERCGVLSKWTNYIHGWQDRWVVLKNNALSYYKSEDETEYGCRGSICLSKAVITPHDFDECRFDISVNDSVWYLRAQDPDHRQQWIDAIEQHKTESGYGSESSLRRHGSMVSLVSGASGYSATSTSSFKKGHSLREKLAEMETFRDILCRQVDTLQKYFDACADAVSKDELQRDKVVEDDEDDFPTTRSDGDFLHSTNGNKEKLFPHVTPKGINGIDFKGEAITFKATTAGILATLSHCIELMVKREDSWQKRLDKETEKKRRTEEAYKNAMTELKKKSHFGGPDYEEGPNSLINEEEFFDAVEAALDRQDKIEEQSQSEKVRLHWPTSLPSGDAFSSVGTHRFVQKVEEMVQNHMTYSLQDVGGDANWQLVVEEGEMKVYRREVEENGIVLDPLKATHAVKGVTGHEVCNYFWNVDVRNDWETTIENFHVVETLADNAIIIYQTHKRAAPASQRDVLYLSVIRKIPALTENDPETWIVCNFSVDHDSAPLNNRCVRAKINVAMICQTLVSPPEGNQEISRDNILCKITYVANVNPGGWAPASVLRAVAKREYPKFLKRFTSYVQEKTAGKPILF [V472A;W473A], the “effect of a mutation on the interaction” value was “with no effect”.
With MSDNQSWNSSGSEEDPETESGPPVERCGVLSKWTNYIHGWQDRWVVLKNNALSYYKSEDETEYGCRGSICLSKAVITPHDFDECRFDISVNDSVWYLRAQDPDHRQQWIDAIEQHKTESGYGSESSLRRHGSMVSLVSGASGYSATSTSSFKKGHSLREKLAEMETFRDILCRQVDTLQKYFDACADAVSKDELQRDKVVEDDEDDFPTTRSDGDFLHSTNGNKEKLFPHVTPKGINGIDFKGEAITFKATTAGILATLSHCIELMVKREDSWQKRLDKETEKKRRTEEAYKNAMTELKKKSHFGGPDYEEGPNSLINEEEFFDAVEAALDRQDKIEEQSQSEKVRLHWPTSLPSGDAFSSVGTHRFVQKVEEMVQNHMTYSLQDVGGDANWQLVVEEGEMKVYRREVEENGIVLDPLKATHAVKGVTGHEVCAAFWNVDVRNDWETTIENFHVVETLADNAIIIYQTHKRVWPASQRDVLYLSVIRKIPALTENDPETWIVCNFSVDHDSAPLNNRCVRAKINVAMICQTLVSPPEGNQEISRDNILCKITYVANVNPGGWAPASVLRAVAKREYPKFLKRFTSYVQEKTAGKPILF [N434A;Y435A] the “effect of a mutation on the interaction” value was “with no effect”.

Variants of: B1
Conditions: with samp_human APCS
Remark: another data set of the same source
MSDNQSWNSSGSEEDPETESGPPVERCGVLSKWTNYIHGWQDRWVVLKNNALSYYKSEDETEYGCRGSICLSKAVITPHDFDECRFDISVNDSVWYLRAQDPDHRQQWIDAIEQHKTESGYGSESSLRRHGSMVSLVSGASGYSATSTSSFKKGHSLREKLAEMETFRDILCRQVDTLQKYFDACADAVSKDELQRDKVVEDDEDDFPTTRSDGDFLHSTNGNKEKLFPHVTPKGINGIDFKGEAITFKATTAGILATLSHCIELMVKREDSWQKRLDKETEKKRRTEEAYKNAMTELKKKSHFGGPDYEEGPNSLINEEEFFDAVEAALDRQDKIEEQSQSEKVRLHWPTSLPSGDAFSSVGTHRFVQKVEEMVQNHMTYSLQDVGGDANWQLVVEEGEMKVYRREVEENGIVLDPLKATHAVKGVTGHEVCAAFWNVDVRNDWETTIENFHVVETLADNAIIIYQTHKRVWPASQRDVLYLSVIRKIPALTENDPETWIVCNFSVDHDSAPLNNRCVRAKINVAMICQTLVSPPEGNQEISRDNILCKITYVANVNPGGWAPASVLRAVAKREYPKFLKRFTSYVQEKTAGKPILF [N434A;Y435A] was tested, and the “effect of a mutation on the interaction” value was “decreasing interaction strength”.
